The target in this experiment is Hemagglutinin of AIV A/duck/It/775/04(H5N3) (Influenza A virus A/duck/Italy/775/2004(H5N3)). Kind of experiment: cell-based or functional assay.
Substance “mAb 7: Monoclonal Antibody to Influenza A (Hemagglutinin H5) H5N1 - Purified, Acris Antibodies AM00945PU-N” gave an HI titer of 2 µg/mL.

Consider “mAb 9 (Pierce/Thermo Sci., Cat. No. MA1-81928) (antibody)”, for which the HI titer was determined as 7.8 µg/mL. For “mAb 8: Monoclonal Antibody to Influenza A (Hemagglutinin H5) H5N1 - Purified, Acris Antibodies AM00941PU-N” the value was 1 µg/mL.

Values taken from US20190352375A1.
